Test results published in patent US20240052047A1 (Pfizer, published 2024).

Legend:
[1] = target: T1, human IL27 receptor (IL27RA/gp130 heterodimer) on human cells (human, UniProt Q6UWB1 33-636; P40189 23-918); assay: cell-based or functional assay
[2] = target: T1, human IL27 receptor (IL27RA/gp130 …); assay: cell-based or functional assay; remark: listed apart in the source
Human gp130 = target: T2, Human gp130 (human, UniProt P40189 23-619); assay: SPR Biacore 8K+, 37 C; mAb-4894 captured by anti-Fab, antigen as analyte; 1:1 Langmuir fit
T2 construct: Soluble analyte in SPR and antigen in ELISA/screens; also called huGP130
T2 sequence: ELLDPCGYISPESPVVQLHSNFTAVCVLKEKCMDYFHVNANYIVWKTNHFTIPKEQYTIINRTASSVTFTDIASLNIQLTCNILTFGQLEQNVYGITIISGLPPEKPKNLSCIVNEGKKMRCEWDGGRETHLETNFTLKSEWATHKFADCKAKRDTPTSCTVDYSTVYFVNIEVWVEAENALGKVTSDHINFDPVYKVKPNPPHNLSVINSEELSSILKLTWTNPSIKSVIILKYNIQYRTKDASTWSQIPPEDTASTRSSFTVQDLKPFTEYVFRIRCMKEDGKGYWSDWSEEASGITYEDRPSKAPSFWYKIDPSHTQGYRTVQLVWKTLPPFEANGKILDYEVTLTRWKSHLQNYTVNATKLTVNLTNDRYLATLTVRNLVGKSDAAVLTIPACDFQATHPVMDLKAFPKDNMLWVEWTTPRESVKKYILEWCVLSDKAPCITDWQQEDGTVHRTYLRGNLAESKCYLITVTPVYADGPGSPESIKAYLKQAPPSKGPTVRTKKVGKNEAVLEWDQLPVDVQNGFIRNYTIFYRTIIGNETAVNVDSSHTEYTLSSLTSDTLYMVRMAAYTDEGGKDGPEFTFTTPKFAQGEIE
Protocol: The crossreactivity of mAb-4894 to human and cynomolgus monkey antigens, gp130 (human—SEQ ID NO: 45, cynomolgus—SEQ ID No: 46) and IL27RA (human—SEQ ID NO: 41, cynomolgus—SEQ ID No: 42), was measured by surface plasmon resonance by anti-FAB capture of mAb-4894 (containing arms of anti-IL27RA-4880 EE and anti-gp130-4875 RR) on a biacore chip. Human or cynomolgus monkey IL27RA or gp130 was flowed over the chip and on and off rates were determined, and the affinity constants calculated.
Flow cell 1 for each channel was used as a reference flow cell. After antibody capture, three-fold dilution series of cytokines with concentrations ranging from 405 nM to 15 nM for huGP130 and cyGP130 and 45 nM to 1.67 nM for huIL27R and cyIL27R or HBS-EP+ buffer were injected over the sensor surface for 60 seconds at 50 μl/minute. The dissociation was monitored for 600 seconds and the surface was regenerated with 2 injections of 10 mM Glycine pH 1.7 at 30 μl/minute. The data was double referenced (Myszka, D., J. Mol. Recognit 1999; 279-284). Binding affinities and rate constants were determined for human and cyno GP130 and IL27R by fitting the resulting sensorgram data to a 1:1 Langmuir model in BIAcore Insight Evaluation software version 3.0.12.15655 (Cytiva).

[3] = target: T1, human IL27 receptor (IL27RA/gp130 …); assay: cell-based or functional assay; remark: listed apart in the source
[4] = target: T1, human IL27 receptor (IL27RA/gp130 …); assay: cell-based or functional assay; remark: listed apart in the source

IDO1 mRNA expression in primary cultured human colonocytes, average EC50 [1]: 20000 pM
pSTAT1 in CD3+ T cells from human whole blood, average EC50 [1]: 0.43 nM
pSTAT3 in CD3+ T cells from human whole blood, average EC50 [1]: 0.23 nM
Th17 Cells IL-17A IC50 (MSD immunoassay of supernatant) [2]: 5.5 pM
Kd (Human gp130): 170000 pM
koff (Human gp130): 0.0566 s⁻¹
kon (Human gp130): 337000 M⁻¹ s⁻¹
IDO1 in CD14+ monocytes EC50 [3]: 8 pM
PD-L1 in CD14+ monocytes EC50 (human whole blood) [3]: 2 pM
pSTAT1 in CD3+ T cells EC50 (human whole blood) [3]: 83 pM
Monocyte IDO1 EC50 (human PBMC, CD14+ monocytes, flow cytometry) [4]: 5 pM
Monocyte PD-L1 EC50 (human whole blood, flow cytometry) [4]: 2 pM
Primary Colonocytes IDO1 activity EC50 (kynurenine by LC-MS) [4]: 5400 pM
T Cell pSTAT1 EC50 (human whole blood, CD3+ T cells, flow cytometry) [4]: 0.4 nM
T Cell pSTAT3 EC50 (human whole blood, CD3+ T cells, flow cytometry) [4]: 0.2 nM
B1: mAb-4894 anti-IL27RA/gp130 bispecific antibody (bispecific antibody, human IgG1)
heavy 1: EVQLVESGGGLVQPGGSLRLSCAASGFTFEYFGLQWVRQAPGKGLEWIGYTSSGGNYEYYEETLKGRFTISRDNAKNSLYLQMNSLRAEDTAVYYCARTKTGDYWGQGTLVTVSSASTKGPSVFPLAPSSKSTSGGTAALGCLVKDYFPEPVTVSWNSGALTSGVHTFPAVLQSSGLYSLSSVVTVPSSSLGTQTYICNVNHKPSNTKVDKKVEPKSCEKTHTCPPCPAPEAAGAPSVFLFPPKPKDTLMISRTPEVTCVVVDVSHEDPEVKFNWYVDGVEVHNAKTKPREEQYNSTYRVVSVLTVLHQDWLNGKEYKCKVSNKALPAPIEKTISKAKGQPREPQVYTLPPSREEMTKNQVSLTCEVKGFYPSDIAVEWESNGQPENNYKTTPPVLDSDGSFFLYSKLTVDKSRWQQGNVFSCSVMHEALHNHYTQKSLSLSPGK
light 1: DIQMTQSPSSLSASVGDRVTITCRASQDIGNSLTWYQQKPGKAPKRVIFGATGLAAGVPSRFSGSGSGTDFTLTISSLQPEDFATYYCLQSKQYPYTFGQGTKLEIKRTVAAPSVFIFPPSDEQLKSGTASVVCLLNNFYPREAKVQWKVDNALQSGNSQESVTEQDSKDSTYSLSSTLTLSKADYEKHKVYACEVTHQGLSSPVTKSFNRGEC
heavy 2: QVQLVQSGAEVKKPGSSVKVSCKVSGGSISSYYWSWVRQAPGQGLEWIGRIYITGNTNYNPSLKDRVTMTVDTSTSTHYMELSSLRSEDTAVYYCAREGPKLGIFDYWGQGTLVTVSSASTKGPSVFPLAPSSKSTSGGTAALGCLVKDYFPEPVTVSWNSGALTSGVHTFPAVLQSSGLYSLSSVVTVPSSSLGTQTYICNVNHKPSNTKVDKKVEPKSCRKTHTCPPCPAPEAAGAPSVFLFPPKPKDTLMISRTPEVTCVVVDVSHEDPEVKFNWYVDGVEVHNAKTKPREEQYNSTYRVVSVLTVLHQDWLNGKEYKCKVSNKALPAPIEKTISKAKGQPREPQVYTLPPSREEMTKNQVSLTCLVKGFYPSDIAVEWESNGQPENNYKTTPPVLDSDGSFFLYSRLTVDKSRWQQGNVFSCSVMHEALHNHYTQKSLSLSPGK
light 2: DIQMTQSPSSLSASVGDRVTITCRASQSVSSSYLAWYQQKPGKAPKLLIYGTESRATGVPSRFSGSGSGTDFTLTISSLQPEDFATYYCQQYGGYPTFGGGTKVEIKRTVAAPSVFIFPPSDEQLKSGTASVVCLLNNFYPREAKVQWKVDNALQSGNSQESVTEQDSKDSTYSLSSTLTLSKADYEKHKVYACEVTHQGLSSPVTKSFNRGEC
notes: Human IgG1 EE/RR heterodimer with L234A, L235A, G237A (EU); also called GBT-IL27R-4894; GBT-IL-27R-4894
